According to publication PMC9759335:
Like-named read-outs stand apart in the source and are kept apart here.

What was measured:
[1] = EGFP fluorescence in transfected HeLa cells; settings: glycan lost; control: P0wt-EGFP
[2] = aggregate area of transfected HeLa cells; settings: glycan lost; control: P0wt-EGFP
[3] = confocal EGFP imaging of HeLa cells; settings: glycan changed form; control: untreated cells, same construct
HeLa adhesion assay = settings: glycan changed form; control: untreated P0D61N cells

In the case of “P0 D118N (Myelin Protein Zero mutant): D118N”, the localisation_or_trafficking (N-glycosylation at N118) is reported as “no change”.

With “P0 D61N (Myelin Protein Zero mutant): D61N” the localisation_or_trafficking (N-glycosylation at N61) was “decreases”.

With “P0 D61N (mouse Mpz knock-in mutant): D61N (MpzD61N/+ mice)” the expression_or_secretion (N-glycosylation at N61) was “no change”.

In the case of “P0 D61N (Myelin Protein Zero mutant): 750 μM N-butyl-deoxynojirimycin (NB-DNJ) on HeLa cells expressing D61N”, the localisation_or_trafficking (N-glycosylation at N61) is reported as “increases”.

With “P0 D61N (mouse Mpz knock-in mutant): D61N (MpzD61N/− mice)” the localisation_or_trafficking (N-glycosylation at N61) was “changes”.

For “P0 K138N (Myelin Protein Zero mutant): K138N”, the localisation_or_trafficking (N-glycosylation at N138) was “decreases”.

In the case of “P0 D109N (Myelin Protein Zero mutant): D109N”, the localisation_or_trafficking (N-glycosylation at N109) is reported as “decreases”.

B1: P0 (Myelin Protein Zero): N122S (protein)
parent chain: MAPGAPSSSPSPILAVLLFSSLVLSPAQAIVVYTDREVHGAVGSRVTLHCSFWSSEWVSDDISFTWRYQPEGGRDAISIFHYAKGQPYIDEVGTFKERIQWVGDPRWKDGSIVIHNLDYSDNGTFTCDVKNPPDIVGKTSQVTLYVFEKVPTRYGVVLGAVIGGVLGVVLLLLLLFYVVRYCWLRRQAALQRRLSAMEKGKLHKPGKDASKRGRQTPVLYAMLDHSRSTKAVSEKKAKGLGESRKDKK
For B1, the localisation_or_trafficking [1] was “no change” and the “other: homophilic cell adhesion, percent_of_wt” value (from here on “other … percent_of_wt”) [2] was “no change”.

B2: P0 (Myelin Protein Zero): T124M (protein)
parent chain: B1 parent chain
With B2 the localisation_or_trafficking [1] was “no change” and the “other … percent_of_wt” value [2] was “no change”.

B3: P0 (Myelin Protein Zero): T124A (protein)
parent chain: B1 parent chain
In the case of B3, the localisation_or_trafficking [1] is reported as “no change” and the “other … percent_of_wt” value [2] is reported as “no change”.

B4: P0 (Myelin Protein Zero): 750 μM NB-DNJ on P0wt (protein)
parent chain: B1 parent chain
For B4, the localisation_or_trafficking [3] was “no change”.

B5: P0 (Myelin Protein Zero): 750 μM NB-DNJ on P0D61N (protein)
parent chain: B1 parent chain
In the case of B5, the “other: homophilic cell adhesion” value (HeLa adhesion assay) is reported as “increases”.

B6: P0 (Myelin Protein Zero): T124K (protein)
parent chain: B1 parent chain
For B6, the localisation_or_trafficking [1] was “no change”.
